Read-outs that look alike come from different tables or passages of the source.
Columns and labels:
[1] = tested on: MetMab full heavy chain with T366S L358V Y407A, with MetMab light chain; test: SEC
[2] = tested on: MetMab full heavy chain with T366S L358V Y407A, with MetMab light chain; test: SEC; remark: listed apart in the source
[3] = molecular target: MetMab full heavy chain with K409D K392D, with MetMab light chain; test: SEC
[4] = tested on: MetMab full heavy chain with T366W, with MetMab light chain; test: SEC
[5] = tested on: MetMab full heavy chain with T366W, with MetMab light chain; test: SEC; remark: listed apart in the source
[6] = tested on: MetMab full heavy chain with Y349S K370Y T366M K409V, with MetMab light chain; test: SEC
[7] = tested on: MetMab full heavy chain with Y349S K370Y T366M K409V, with MetMab light chain; test: SEC; remark: listed apart in the source
[8] = molecular target: EGFR domain 3 - Fc, wild-type CH3; test: FRET or BRET
[9] = molecular target: MetMab full heavy chain with T350V T366L K392L T394W, with MetMab light chain; test: SEC
[10] = tested on: EGFR domain 3 - Fc with Y349S K370Y T366V K409V; test: FRET or BRET
[11] = tested on: MetMab full heavy chain with wild-type CH3, with MetMab light chain [IgG part: P01857]; test: SEC
[12] = tested on: MetMab full heavy chain with wild-type CH3, with MetMab light chain [IgG part: P01857]; test: SEC; remark: listed apart in the source
[13] = molecular target: VEGFR1 domain 3 - Fc, wild-type CH3; test: FRET or BRET
[14] = tested on: EGFR domain 3 - Fc with Y349S K370Y T366M K409V; test: FRET or BRET
IgG1 Fc, wild-type CH3 = test: SEC
[15] = tested on: MetMab full heavy chain with K409D K392D, with MetMab light chain; test: SEC; remark: listed apart in the source
[16] = tested on: EGFR domain 3 - Fc with K409D K392D; test: FRET or BRET
[17] = tested on: MetMab full heavy chain with E357D S364Q Y407A, with MetMab light chain; test: SEC
[18] = tested on: MetMab full heavy chain with E357D S364Q Y407A, with MetMab light chain; test: SEC; remark: listed apart in the source
[19] = molecular target: MetMab full heavy chain with T366V K409V, with MetMab light chain; test: SEC
[20] = molecular target: MetMab full heavy chain with T366V K409V, with MetMab light chain; test: SEC; remark: listed apart in the source
[21] = tested on: MetMab full heavy chain with D399K E356K, with MetMab light chain; test: SEC
[22] = tested on: MetMab full heavy chain with D399K E356K, with MetMab light chain; test: SEC; remark: listed apart in the source
[23] = tested on: MetMab full heavy chain with Y349S K370Y T366V K409V, with MetMab light chain; test: SEC
[24] = tested on: MetMab full heavy chain with Y349S K370Y T366V K409V, with MetMab light chain; test: SEC; remark: listed apart in the source
[25] = molecular target: MetMab full heavy chain with T350V L351Y F405A Y407V, with MetMab light chain; test: SEC
[26] = tested on: EGFR domain 3 - Fc with T366W; test: FRET or BRET
[27] = molecular target: MetMab full heavy chain with wild-type CH3, with MetMab light chain [IgG part: P01857]; test: SEC; remark: listed apart in the source
[28] = tested on: MetMab full heavy chain with E357D S364R Y407A, with MetMab light chain; test: SEC
[29] = tested on: MetMab full heavy chain with E356G E357D S364Q Y407A, with MetMab light chain; test: SEC
[30] = tested on: MetMab full heavy chain with E357D S364R Y407A, with MetMab light chain; test: SEC; remark: listed apart in the source
[31] = tested on: MetMab full heavy chain with E356G E357D S364Q Y407A, with MetMab light chain; test: SEC; remark: listed apart in the source

For IgG1 Fc with T366W, the % AB heterodimer [1] was 33.1% and the % AB heterodimer [2] was 94.1%.

“MetMab full heavy chain with K409D K392D, with MetMab light chain (complex)” showed a % AA homodimer (co-expressed with m19) [3] of 19.9%.

With IgG1 Fc with T366S L358V Y407A the % AB heterodimer [4] was 35% and the % AB heterodimer [5] was 92.4%.

In the case of IgG1 Fc with E356G E357D S364Q Y407A, the % AB heterodimer [6] is reported as 23.6% and the % AB heterodimer [7] is reported as 83.8%.

In the case of “EGFR domain 3 - Fc, wild-type CH3 (Fc fusion)”, the % AA homodimer (co-expressed with m42) [8] is reported as 24.2%.

IgG1 Fc with E357D S364R Y407A showed a % AB heterodimer [6] of 34.7% and a % AB heterodimer [7] of 83.5%.

“MetMab full heavy chain with T350V T366L K392L T394W, with MetMab light chain (complex)” was tested, and the % AA homodimer (co-expressed with m23) [9] was 5.1%.

Substance “VEGFR1 domain 3 - Fc with E357D S364Q Y407A” has a % AB heterodimer [10] of 93.3%.

In the case of IgG1 Fc, wild-type CH3, the % AB heterodimer [11] is reported as 27.4% and the % AB heterodimer [12] is reported as 51.3%.

“VEGFR1 domain 3 - Fc, wild-type CH3 (Fc fusion)” gave a % BB homodimer (co-expressed with m35) [13] of 14.6%.

In the case of “VEGFR1 domain 3 - Fc with E356G E357D S364Q Y407A”, the % AB heterodimer [14] is reported as 93.9%.

With “IgG1 Fc, wild-type CH3 (domain or fragment)” the % BB homodimer (co-expressed with m1) (IgG1 Fc, wild-type CH3) was 15.9%.

With IgG1 Fc with D399K E356K the % AB heterodimer [3] was 37.5% and the % AB heterodimer [15] was 91.7%.

Substance VEGFR1 domain 3 - Fc with D399K E356K has a % AB heterodimer [16] of 96.2%.

With IgG1 Fc with Y349S K370Y T366V K409V the % AB heterodimer [17] was 4.7% and the % AB heterodimer [18] was 92.5%.

With “MetMab full heavy chain with T366W, with MetMab light chain (complex)” the % AA homodimer (co-expressed with m21) [4] was 15.7%.

For “MetMab full heavy chain with T366V K409V, with MetMab light chain (complex)”, the % AA homodimer (co-expressed with m24) [19] was 4.1%, the % AA long dimer (co-expressed with m24) [19] was 3.8% and the % AA homodimer (co-expressed with m24) [20] was 28.6%. It also gave a % AA long dimer (co-expressed with m24) [20] of 24.1%.

IgG1 Fc with K409D K392D gave a % AB heterodimer [21] of 29.4% and a % AB heterodimer [22] of 93.6%.

With VEGFR1 domain 3 - Fc, wild-type CH3 the % AB heterodimer [8] was 61.2%.

Work on IgG1 Fc with E357D S364Q Y407A yielded a % AB heterodimer [23] of 11.7% and a % AB heterodimer [24] of 84.9%.

Work on “MetMab full heavy chain with T350V L351Y F405A Y407V, with MetMab light chain (complex)” yielded a % AA homodimer (co-expressed with m22) [25] of 9%.

“VEGFR1 domain 3 - Fc with T366S L358V Y407A” showed a % AB heterodimer [26] of 96.2%.

“MetMab full heavy chain with D399K E356K, with MetMab light chain (complex)” gave a % AA homodimer (co-expressed with m18) [21] of 11.3%.

With “MetMab full heavy chain with wild-type CH3, with MetMab light chain (from UniProt P01857 1-399) (complex)” the % AA homodimer (co-expressed with m17) [27] was 31.3% and the % AA homodimer (co-expressed with m17) [11] was 65%.

In the case of IgG1 Fc with Y349S K370Y T366M K409V, the % AB heterodimer [28] is reported as 29.9%, the % AB heterodimer [29] is reported as 31.8% and the % AB heterodimer [30] is reported as 85.5%. It also gave a % AB heterodimer [31] of 94.2%.

— article PMC4866497
